Test results reported in article PMC6555819, “Comprehensive study of nuclear receptor DNA binding provides a revised framework for understanding receptor specificity”.
Substitutions are numbered along the chain they refer to.

B1: NRC3_wobSeed3_DR0_G21C_o1 (dsDNA)
DNA 1: GCGCTCGGAGGACAAGGTCACAGCTTTGTCCGTAGAGCGATTGACAGCGTAGAATGAAGG
DNA 2: CCTTCATTCTACGCTGTCAATCGCTCTACGGACAAAGCTGTGACCTTGTCCTCCGAGCGC
B2: NRC3_wobSeed88_DR3_C7A_o1 (dsDNA)
DNA 1: GCTAGCATAGGTCATGCGGGCCAGTATAGTGTCGGCGCGATTGACAGCGTAGAATGAAGG
DNA 2: CCTTCATTCTACGCTGTCAATCGCGCCGACACTATACTGGCCCGCATGACCTATGCTAGC
B3: NRC3_wobSeed97_DR4_T22G_o1 (dsDNA)
DNA 1: GCCAAACTAGGTCACGAAAGGGCAAAGTCGAATGACGCGATTGACAGCGTAGAATGAAGG
DNA 2: CCTTCATTCTACGCTGTCAATCGCGTCATTCGACTTTGCCCTTTCGTGACCTAGTTTGGC
B4: NRC3_wobSeed18_DR0_G16T_o1 (dsDNA)
DNA 1: GCGATACAGGGTCAATGCCAGAGTACGCGTATTGATGCGATTGACAGCGTAGAATGAAGG
DNA 2: CCTTCATTCTACGCTGTCAATCGCATCAATACGCGTACTCTGGCATTGACCCTGTATCGC
B5: NRC3_wobSeed5_DR0_A20G_o1 (dsDNA)
DNA 1: GCCCTTACGGGTCAAGGTTGTAGCACGGGTGGTACGGCGATTGACAGCGTAGAATGAAGG
DNA 2: CCTTCATTCTACGCTGTCAATCGCCGTACCACCCGTGCTACAACCTTGACCCGTAAGGGC
B6: NRC3_wobSeed21_DR0_G17C_o1 (dsDNA)
DNA 1: GCCGTCAAAGTTCAAGCTAACGTAACAGAAAGCAGCGCGATTGACAGCGTAGAATGAAGG
DNA 2: CCTTCATTCTACGCTGTCAATCGCGCTGCTTTCTGTTACGTTAGCTTGAACTTTGACGGC
B7: NRC3_wobSeed100_DR4_C13G_o1 (dsDNA)
DNA 1: GCCCTACTGGGCGACGAAAGGTCATTGATTCAGTGAGCGATTGACAGCGTAGAATGAAGG
DNA 2: CCTTCATTCTACGCTGTCAATCGCTCACTGAATCAATGACCTTTCGTCGCCCAGTAGGGC
B8: NRC3_wobSeed100_DR4_C15T_o1 (dsDNA)
DNA 1: B7 DNA 1 with G13C, C15T
DNA 2: B7 DNA 2 with G46A, C48G
B9: NRC3_wobSeed93_DR3_A23T_o1 (dsDNA)
DNA 1: GCAGTCAAAGTTCATCTAGGTATCGTAAGATATGCTGCGATTGACAGCGTAGAATGAAGG
DNA 2: CCTTCATTCTACGCTGTCAATCGCAGCATATCTTACGATACCTAGATGAACTTTGACTGC
B10: NRC3_wobSeed98_DR4_o1 (dsDNA)
DNA 1: GCACTAGTTGGTCAGCTGAGGTCACACACAATTCGGGCGATTGACAGCGTAGAATGAAGG
DNA 2: CCTTCATTCTACGCTGTCAATCGCCCGAATTGTGTGTGACCTCAGCTGACCAACTAGTGC
B11: NRC3_wobSeed30_DR1_C4G_o1 (dsDNA)
DNA 1: GCAGTAGCAGGCCAAGGGTCACTCAAGATTAGTCCGGCGATTGACAGCGTAGAATGAAGG
DNA 2: CCTTCATTCTACGCTGTCAATCGCCGGACTAATCTTGAGTGACCCTTGGCCTGCTACTGC
B12: NRC3_wobSeed82_DR3_A28G_o1 (dsDNA)
DNA 1: GCATCGAAAGGTCGACGAGGTGAGTATGCACCGTTTGCGATTGACAGCGTAGAATGAAGG
DNA 2: CCTTCATTCTACGCTGTCAATCGCAAACGGTGCATACTCACCTCGTCGACCTTTCGATGC
B13: NRC3_wobSeed98_DR4_G15C_o1 (dsDNA)
DNA 1: B10 DNA 1 with G15C
DNA 2: B10 DNA 2 with C46G
B14: NRC3_wobSeed101_DR4_G20T_o1 (dsDNA)
DNA 1: GCCCTTACGGGTCACTCCATGTTATAGCATCGGAGTGCGATTGACAGCGTAGAATGAAGG
DNA 2: CCTTCATTCTACGCTGTCAATCGCACTCCGATGCTATAACATGGAGTGACCCGTAAGGGC
B15: NRC3_wobSeed124_DR5_T16A_o1 (dsDNA)
DNA 1: GCCCTACTGGGCCATACAGAGGTCATTGATCATATGGCGATTGACAGCGTAGAATGAAGG
DNA 2: CCTTCATTCTACGCTGTCAATCGCCATATGATCAATGACCTCTGTATGGCCCAGTAGGGC
B16: NRC3_wobSeed74_DR3_A14G_o1 (dsDNA)
DNA 1: GCTCTAGTTGGTCGCGGAGGTCACACACGACGGGTAGCGATTGACAGCGTAGAATGAAGG
DNA 2: CCTTCATTCTACGCTGTCAATCGCTACCCGTCGTGTGTGACCTCCGCGACCAACTAGAGC
B17: NRC3_wobSeed99_DR4_G10T_o1 (dsDNA)
DNA 1: GCTCTCGGATGACACGAAAGGTCAGAGCTCGACATCGCGATTGACAGCGTAGAATGAAGG
DNA 2: CCTTCATTCTACGCTGTCAATCGCGATGTCGAGCTCTGACCTTTCGTGTCATCCGAGAGC
B18: NRC3_wobSeed73_DR3_T21G_o1 (dsDNA)
DNA 1: GCCAAACTAGGTCACAGAGGGCAAAGTCCGTGCGTAGCGATTGACAGCGTAGAATGAAGG
DNA 2: CCTTCATTCTACGCTGTCAATCGCTACGCACGGACTTTGCCCTCTGTGACCTAGTTTGGC
B19: NRC3_wobSeed21_DR0_T18C_o1 (dsDNA)
DNA 1: B6 DNA 1 with C17G, T18C
DNA 2: B6 DNA 2 with A43G, G44C
B20: NRC3_wobSeed50_DR2_T12G_o1 (dsDNA)
DNA 1: GCCCTAGTTGGGCAGGAGGTCACACACCGGATATGAGCGATTGACAGCGTAGAATGAAGG
DNA 2: CCTTCATTCTACGCTGTCAATCGCTCATATCCGGTGTGTGACCTCCTGCCCAACTAGGGC
B21: NRC3_wobSeed46_DR1_T22G_o1 (dsDNA)
DNA 1: GCTTACCAAGGTGAAAGGTCGGTGATGCACGCCTTGGCGATTGACAGCGTAGAATGAAGG
DNA 2: CCTTCATTCTACGCTGTCAATCGCCAAGGCGTGCATCACCGACCTTTCACCTTGGTAAGC
B22: NRC3_wobSeed36_DR1_A26G_o1 (dsDNA)
DNA 1: GCCCGACTGGGGCAAAGGTTACCATGCTCAGTACGAGCGATTGACAGCGTAGAATGAAGG
DNA 2: CCTTCATTCTACGCTGTCAATCGCTCGTACTGAGCATGGTAACCTTTGCCCCAGTCGGGC
B23: NRC3_wobSeed124_DR5_T5C_o1 (dsDNA)
DNA 1: B15 DNA 1 with T5C, A16T
DNA 2: B15 DNA 2 with T45A, A56G
B24: NRC3_wobSeed124_DR5_A6T_o1 (dsDNA)
DNA 1: B15 DNA 1 with A6T, A16T
DNA 2: B15 DNA 2 with T45A, T55A
B25: NRC3_wobSeed65_DR2_T8C_o1 (dsDNA)
DNA 1: GCATATGCAGGTTATCGGGTCATTCAGTTTGCGCATGCGATTGACAGCGTAGAATGAAGG
DNA 2: CCTTCATTCTACGCTGTCAATCGCATGCGCAAACTGAATGACCCGATAACCTGCATATGC

Target: RXRa (Homo sapiens, UniProt P19793)
Assay: no ligand; PBM; 180 nM; PBS pH 7.4, 2% milk, 0.02% Triton X-100, 1 mM DTT, BSA, 0.4 mg/ml salmon testes DNA
Conditions: tags: His cleaved; chain copies: 2; label: surface-attached array probe

RXRa, sequence (P19793 whole entry): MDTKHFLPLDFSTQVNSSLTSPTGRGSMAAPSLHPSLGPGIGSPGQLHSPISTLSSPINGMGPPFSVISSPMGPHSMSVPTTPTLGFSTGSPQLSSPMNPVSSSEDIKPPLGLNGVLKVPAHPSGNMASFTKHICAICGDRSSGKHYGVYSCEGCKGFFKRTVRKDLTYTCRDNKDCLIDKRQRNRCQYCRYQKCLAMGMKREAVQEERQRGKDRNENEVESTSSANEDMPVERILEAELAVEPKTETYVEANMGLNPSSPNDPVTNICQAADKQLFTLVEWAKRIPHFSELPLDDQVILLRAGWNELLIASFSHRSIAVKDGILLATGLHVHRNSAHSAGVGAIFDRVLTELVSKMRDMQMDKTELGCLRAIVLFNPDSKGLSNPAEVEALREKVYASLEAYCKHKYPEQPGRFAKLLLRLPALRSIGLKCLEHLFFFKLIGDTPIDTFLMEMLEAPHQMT

Binder	binding signal
B1	4.86 PBM z-score against 500 random probes
B2	4.81 PBM z-score against 500 random probes
B3	4.76 PBM z-score against 500 random probes
B4	4.72 PBM z-score against 500 random probes
B5	4.67 PBM z-score against 500 random probes
B6	4.62 PBM z-score against 500 random probes
B7	4.57 PBM z-score against 500 random probes
B8	4.52 PBM z-score against 500 random probes
B9	4.47 PBM z-score against 500 random probes
B10	4.42 PBM z-score against 500 random probes
B11	4.38 PBM z-score against 500 random probes
B12	4.34 PBM z-score against 500 random probes
B13	4.28 PBM z-score against 500 random probes
B14	4.24 PBM z-score against 500 random probes
B15	4.2 PBM z-score against 500 random probes
B16	4.16 PBM z-score against 500 random probes
B17	4.05 PBM z-score against 500 random probes
B18	4.01 PBM z-score against 500 random probes
B19	3.96 PBM z-score against 500 random probes
B20	3.92 PBM z-score against 500 random probes
B21	3.86 PBM z-score against 500 random probes
B22	3.81 PBM z-score against 500 random probes
B23	3.75 PBM z-score against 500 random probes
B24	3.71 PBM z-score against 500 random probes
B25	3.65 PBM z-score against 500 random probes
